Test [1] addresses T1, human LRP6 (hLRP6) protein (Cat. No. 1505-LR-025, R&D, USA) (human, UniProt O75581 20-1368, limits assumed).
T1 construct: Coated on the ELISA plate
T1 sequence (looked up): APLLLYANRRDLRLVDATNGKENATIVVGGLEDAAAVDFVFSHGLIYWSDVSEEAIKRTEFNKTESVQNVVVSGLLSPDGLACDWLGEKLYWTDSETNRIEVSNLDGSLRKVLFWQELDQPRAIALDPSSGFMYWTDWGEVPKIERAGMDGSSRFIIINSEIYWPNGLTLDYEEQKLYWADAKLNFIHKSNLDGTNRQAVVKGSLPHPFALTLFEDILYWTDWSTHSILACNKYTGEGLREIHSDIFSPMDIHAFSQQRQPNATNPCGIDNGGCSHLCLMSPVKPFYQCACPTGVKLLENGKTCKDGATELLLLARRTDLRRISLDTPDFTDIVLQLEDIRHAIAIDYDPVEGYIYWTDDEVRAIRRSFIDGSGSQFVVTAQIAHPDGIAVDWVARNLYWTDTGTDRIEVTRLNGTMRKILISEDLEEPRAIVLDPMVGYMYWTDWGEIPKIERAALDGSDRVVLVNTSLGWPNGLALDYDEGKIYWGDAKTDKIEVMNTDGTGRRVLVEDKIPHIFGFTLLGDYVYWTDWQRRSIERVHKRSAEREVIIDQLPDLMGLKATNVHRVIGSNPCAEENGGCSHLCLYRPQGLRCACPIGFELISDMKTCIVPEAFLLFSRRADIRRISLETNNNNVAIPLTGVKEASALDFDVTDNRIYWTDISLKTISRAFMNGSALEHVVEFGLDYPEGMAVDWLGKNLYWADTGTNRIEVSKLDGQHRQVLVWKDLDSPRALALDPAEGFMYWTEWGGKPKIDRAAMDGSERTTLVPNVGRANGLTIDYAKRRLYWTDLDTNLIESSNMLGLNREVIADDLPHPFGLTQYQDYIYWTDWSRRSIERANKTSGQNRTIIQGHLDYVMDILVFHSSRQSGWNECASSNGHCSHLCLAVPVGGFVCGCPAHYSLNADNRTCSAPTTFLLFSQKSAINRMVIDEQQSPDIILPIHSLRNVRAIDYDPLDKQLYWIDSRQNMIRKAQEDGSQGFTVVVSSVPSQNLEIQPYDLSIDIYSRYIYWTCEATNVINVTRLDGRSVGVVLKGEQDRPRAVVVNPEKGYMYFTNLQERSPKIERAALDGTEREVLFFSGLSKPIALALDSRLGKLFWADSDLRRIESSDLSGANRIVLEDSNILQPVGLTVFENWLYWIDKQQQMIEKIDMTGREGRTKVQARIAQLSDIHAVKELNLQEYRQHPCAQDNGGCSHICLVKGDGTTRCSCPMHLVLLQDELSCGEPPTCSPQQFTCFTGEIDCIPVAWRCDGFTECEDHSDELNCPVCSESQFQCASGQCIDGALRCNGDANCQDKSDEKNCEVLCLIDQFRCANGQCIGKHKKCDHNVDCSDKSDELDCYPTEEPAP
Briefly: ELISA, 100 ng hLRP6 coated, DKK2 protein diluted serially from 100 nM, KD calculated from absorbance at 490 nm. Here is the method:
(§1) Each purified DKK2 protein and 100 μl of 1% (w/v) skim milk/1×PBS were mixed to prepare 100 nM of DKK2 protein, and 100 nM of DKK2 protein was subjected to ¼ serial dilution. The diluted protein was applied to the prepared ELISA plate, and incubated at room temperature for about 2 hours. Thereafter, the plate was washed with 200 μl of PBST five times.
(§2) 2 μl of anti-Human Fc-HRP (Cat. No. 31413, Thermo, USA) antibody was mixed with 4 ml of PBS containing 1% (w/v) skim milk, and 200 μl of this mixture was added to each well of ELISA plate and incubated at room temperature for 1 hour. Thereafter, the secondary antibody of the ELISA plate was removed, and the plate was washed with 200 of PBS five times. 10 μl of H₂O₂ solution (Cat. No. H1009-100ML, Sigma, USA), 10 ml of PC buffer (5.1 g of citric acid monohydrate, 7.3 g of sodium phosphate/L (pH 5.0)), and one tablet of OPD (Cat. No. P8787-100TAB, Sigma, USA) were mixed to prepare a mixture, and a total volume of 100 μl of the mixture was added to each well. Incubation was performed at room temperature in the dark for 10 minutes, followed by color development. Thereafter, 50 μl of a stop buffer was added to each well to terminate the color development. Absorbance at 490 nm was measured using an ELISA reader, and a dissociation constant KD value (M) was calculated from the measured absorbance. […]

Test [2] has as its target T2, mouse LRP6 (mLRP6) protein (Cat. No. 2960-LR-025, R&D, USA) (mouse, UniProt O88572 20-1370, limits assumed).
T2 construct: Coated on the ELISA plate
T2 sequence (looked up): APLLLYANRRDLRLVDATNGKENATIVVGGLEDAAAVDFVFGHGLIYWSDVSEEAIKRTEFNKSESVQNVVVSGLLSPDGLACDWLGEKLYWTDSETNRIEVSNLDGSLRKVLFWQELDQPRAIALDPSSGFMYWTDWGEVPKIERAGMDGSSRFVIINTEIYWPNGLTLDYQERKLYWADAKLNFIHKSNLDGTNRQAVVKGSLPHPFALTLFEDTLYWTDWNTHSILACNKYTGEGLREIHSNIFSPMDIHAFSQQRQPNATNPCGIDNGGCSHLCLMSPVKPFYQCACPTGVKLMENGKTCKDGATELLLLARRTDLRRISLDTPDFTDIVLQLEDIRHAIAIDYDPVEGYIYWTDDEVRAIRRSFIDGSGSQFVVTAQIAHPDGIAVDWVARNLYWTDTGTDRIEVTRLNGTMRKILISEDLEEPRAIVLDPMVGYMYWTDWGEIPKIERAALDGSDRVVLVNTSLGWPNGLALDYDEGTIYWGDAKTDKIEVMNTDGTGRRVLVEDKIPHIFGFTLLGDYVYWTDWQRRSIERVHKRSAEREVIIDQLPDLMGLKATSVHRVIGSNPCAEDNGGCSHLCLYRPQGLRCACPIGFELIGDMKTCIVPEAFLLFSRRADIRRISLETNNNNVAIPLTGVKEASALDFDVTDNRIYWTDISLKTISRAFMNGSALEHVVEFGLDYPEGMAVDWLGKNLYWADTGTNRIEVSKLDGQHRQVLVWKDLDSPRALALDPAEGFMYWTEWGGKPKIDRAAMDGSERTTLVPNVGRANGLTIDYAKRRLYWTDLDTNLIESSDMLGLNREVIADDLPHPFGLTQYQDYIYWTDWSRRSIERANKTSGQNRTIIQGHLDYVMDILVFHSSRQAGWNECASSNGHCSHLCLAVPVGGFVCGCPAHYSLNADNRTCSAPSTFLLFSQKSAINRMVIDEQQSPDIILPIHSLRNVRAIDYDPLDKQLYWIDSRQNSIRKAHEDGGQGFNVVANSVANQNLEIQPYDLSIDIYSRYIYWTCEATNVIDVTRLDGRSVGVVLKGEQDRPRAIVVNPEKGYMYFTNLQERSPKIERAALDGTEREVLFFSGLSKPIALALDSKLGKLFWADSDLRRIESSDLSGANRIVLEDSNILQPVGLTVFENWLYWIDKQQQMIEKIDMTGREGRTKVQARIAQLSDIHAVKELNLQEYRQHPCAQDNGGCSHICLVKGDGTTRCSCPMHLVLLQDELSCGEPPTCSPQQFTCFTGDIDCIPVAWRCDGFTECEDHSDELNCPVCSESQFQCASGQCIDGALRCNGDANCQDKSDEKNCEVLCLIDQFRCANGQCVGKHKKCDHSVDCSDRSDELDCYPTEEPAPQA
Briefly: ELISA, 100 ng mLRP6 coated, DKK2 protein diluted serially from 100 nM, KD calculated from absorbance at 490 nm. As for the experimental part: as §1, §2

Broadly, the Kd is a measure of binding affinity in units of concentration.

B1: wild-type DKK2 (Cat. No. 6628-DK-010, R&D, USA) (ligand)
chain: KLNSIKSSLGGETPGQAANRSAGMYQGLAFGGSKKGKNLGQAYPCSSDKECEVGRYCHSPHQGSSACMVCRRKKKRCHRDGMCCPSTRCNNGICIPVTESILTPHIPALDGTRHRDRNHGHYSNHDLGWQNLGRPHTKMSHIKGHEGDPCLRSSDCIEGFCCARHFWTKICKPVLHQGEVCTKQRKKGSHGLEIFQRCDCAKGLSCKVWKDATYSSKARLHVCQKI
notes: Bought protein; also called wild-type DKK2 protein
On to B1, for which the Kd in test [1] was 90 nM; in test [2] it was 270 nM.

Values taken from patent publication US20180016313A1 (MEDPACTO, published 2018).
